Measured values: article doi:10.1101/382655
Like-named read-outs stand apart in the source and are kept apart here.

Experiments:
[1] = target: T1, Integration host factor (IHF) (UniProt P0A6X7;P0A6Y1 2-99;1-94); assay: equilibrium fluorescence titration
[2] = target: T1, Integration host factor (IHF); assay: equilibrium fluorescence titration, extrapolated
[3] = target: T1, Integration host factor (IHF); assay: fluorescence lifetime FRET
[4] = target: T1, Integration host factor (IHF); assay: fluorescence lifetime FRET; remark: listed apart in the source

T1 sequence (P0A6X7 2-99, chain 1 of 2): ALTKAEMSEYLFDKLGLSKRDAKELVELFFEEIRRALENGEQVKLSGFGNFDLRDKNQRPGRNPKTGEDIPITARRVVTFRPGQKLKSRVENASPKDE
T1 sequence (P0A6Y1 whole entry, chain 2 of 2): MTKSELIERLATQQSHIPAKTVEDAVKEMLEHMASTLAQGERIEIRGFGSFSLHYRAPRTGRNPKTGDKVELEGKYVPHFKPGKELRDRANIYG

Binder	Kd [1] [nM]	also measured
H' (design II) (dsDNA, 3' phosphate link on bottom strand (to dye)) DNA 1: GGCCAAAAAAGCATTGCTTATCAATTTGTTGCACC DNA 2: GGTGCAACAAATTGATAAGCAATGCTTTTTTGGCC	1500 ± 200	–
H' (design I) (dsDNA) DNA 1: TGGCCAAAAAAGCATTGCTTATCAATTTGTTGCACC DNA 2: TGGTGCAACAAATTGATAAGCAATGCTTTTTTGGCC	1900 ± 100	Kd [2]: 0.023 nM
H'44A (design I) (dsDNA) DNA 1: TGGCCAAAAAAGCATTGCTTATCAATTTGTAGCACC DNA 2: TGGTGCTACAAATTGATAAGCAATGCTTTTTTGGCC	–	binding result [3]: binds
H1_CTloop (design I) (dsDNA) DNA 1: TGGCCATGCAGTCACTATGAATCAACTACTTAGACC DNA 2: TGGTCTAAGTAGTTGATTCATTCTGACTGCATGGCC	16 ± 3	–
H1 (design I) (dsDNA) DNA 1: TGGCCATGCAGTCACTATGAATCAACTACTTAGACC DNA 2: TGGTCTAAGTAGTTGATTCATAGTGACTGCATGGCC	–	binding result [4]: binds
H1 (design II) (dsDNA, 3' phosphate link on bottom strand (to dye)) DNA 1: GGCCATGCAGTCACTATGAATCAACTACTTAGACC DNA 2: GGTCTAAGTAGTTGATTCATAGTGACTGCATGGCC	1990 ± 50	–
